This is an account of results in patent US20180194841A1 (Regeneron, published 2018).

Numbering of substitutions follows the chain as printed.

The target in test [1] is T1, His-tagged cynomolgus FcγRIIIA (cynomolgus, UniProt Q8SPW2 17-208, limits assumed).
T1 construct: His-tagged, captured on anti-penta-histidine chip; also called cyno FcyRIIIA
Description: SPR steady-state, 25 C, His-tagged FcγR captured, antibody injected. On the procedure:
(§1) The anti-CD3×anti-CD20 bispecific antibodies having chimeric constant heavy chain regions Antibody 1 and Antibody 4 were analyzed using Surface Plasmon Resonance (SPR) (Biacore) technology to determine their kinetic binding parameters to human and cynomolgus Fcγ receptors.
(§2) Briefly, SPR experiments were performed at 25° C. on a Biacore T200 instrument employing a carboxymethyl dextran-coated (CM-5) chip. A mouse monoclonal anti-penta-histidine antibody (GE Healthcare) was immobilized on the surface of the CM-5 sensor chip using standard amine-coupling chemistry. […] Kinetic association (kₐ) and dissociation (kd) rate constants were determined by processing and fitting the data to a 1:1 binding model using Scrubber 2.0 curve fitting software. Binding dissociation equilibrium constants (KD) and dissociative half-lives (t_{1/2}) were calculated from the kinetic rate constants as: KD (M)=kd/kₐ; and t_{1/2} (min)=(ln 2/(60*kd).

For another test, the target named is T2, His-tagged human FcγRIIB (human, UniProt P31994 46-217, limits assumed).
T2 construct: His-tagged, captured on anti-penta-histidine chip; also called human FcyRIIB; FcRγIIB
T2 sequence (looked up): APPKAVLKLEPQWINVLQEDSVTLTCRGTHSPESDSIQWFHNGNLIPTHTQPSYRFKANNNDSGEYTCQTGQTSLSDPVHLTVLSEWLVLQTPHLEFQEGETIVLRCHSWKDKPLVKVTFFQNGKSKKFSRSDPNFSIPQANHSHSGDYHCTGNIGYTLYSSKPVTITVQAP
Described as above. The procedure: as §1, §2

The target in test [2] is T3, His-tagged cynomolgus FcγRIIB (cynomolgus, UniProt A0A140HDP4 43-217).
T3 construct: His-tagged, captured on anti-penta-histidine chip; also called cyno FcyRIIB
T3 sequence: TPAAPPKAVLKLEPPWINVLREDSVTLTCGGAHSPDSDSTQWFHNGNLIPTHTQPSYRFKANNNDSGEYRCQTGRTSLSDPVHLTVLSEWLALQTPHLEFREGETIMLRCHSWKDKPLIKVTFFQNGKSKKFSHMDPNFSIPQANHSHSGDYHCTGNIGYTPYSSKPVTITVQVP
Described as above. On the procedure:
as §1, §2

In test [3] the target is T4, His-tagged human FcγRIIA (H131) (human, UniProt P12318 36-218, limits assumed).
T4 construct: His-tagged, captured on anti-penta-histidine chip; also called hFcyRIIA (H131); FcRγIIA
T4 sequence (looked up): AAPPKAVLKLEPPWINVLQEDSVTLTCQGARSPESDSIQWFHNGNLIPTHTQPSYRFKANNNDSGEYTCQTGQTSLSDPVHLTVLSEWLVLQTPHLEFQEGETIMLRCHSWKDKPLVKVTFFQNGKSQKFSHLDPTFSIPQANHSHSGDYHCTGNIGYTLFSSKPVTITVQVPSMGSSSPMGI
The test is described as above. The procedure:
as §1, §2

The target of test [4] is T5, His-tagged human FcγRIIA (R131) (human, UniProt P12318 36-218, limits assumed).
T5 construct: His-tagged, captured on anti-penta-histidine chip; also called human FcyRIIA (R131); FcRγIIA
T5 sequence (looked up): T4 sequence (looked up) with H132R
Described as above. On the procedure: as §1, §2

Test [5] addresses T6, His-tagged cynomolgus FcγRIIA (cynomolgus, UniProt A0A140HDN0 28-215).
T6 construct: His-tagged, captured on anti-penta-histidine chip; also called cyno FcyRIIA
T6 sequence: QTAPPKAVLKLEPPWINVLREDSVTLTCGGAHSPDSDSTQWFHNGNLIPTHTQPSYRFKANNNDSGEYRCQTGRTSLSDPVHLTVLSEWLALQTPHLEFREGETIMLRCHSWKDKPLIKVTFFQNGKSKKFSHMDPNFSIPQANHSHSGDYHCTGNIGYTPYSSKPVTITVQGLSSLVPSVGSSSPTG
Described as above. The procedure: as §1, §2

Test [6] concerns the target T7, human CD20 (on Raji cells, CD3-, CD20+ human B-cell line; on B16F10.9/CD20 cells) (human, UniProt P11836 1-297).
T7 sequence (looked up): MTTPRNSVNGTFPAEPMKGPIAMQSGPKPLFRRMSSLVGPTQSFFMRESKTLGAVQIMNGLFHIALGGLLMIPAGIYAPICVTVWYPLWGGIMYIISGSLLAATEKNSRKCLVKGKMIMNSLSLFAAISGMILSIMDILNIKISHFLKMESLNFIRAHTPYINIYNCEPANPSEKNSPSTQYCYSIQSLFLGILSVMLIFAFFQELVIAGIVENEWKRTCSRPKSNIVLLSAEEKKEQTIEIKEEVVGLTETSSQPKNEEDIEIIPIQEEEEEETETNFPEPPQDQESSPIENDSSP
The test can be described thus: cell-based or functional assay.

Test [7] concerns the target T7, human CD20 (on Raji cells, CD3-, CD20+ …). Description: cell-based or functional assay. This is another data set of the same source.

T1 sequence (Q8SPW2 17-208 limits assumed): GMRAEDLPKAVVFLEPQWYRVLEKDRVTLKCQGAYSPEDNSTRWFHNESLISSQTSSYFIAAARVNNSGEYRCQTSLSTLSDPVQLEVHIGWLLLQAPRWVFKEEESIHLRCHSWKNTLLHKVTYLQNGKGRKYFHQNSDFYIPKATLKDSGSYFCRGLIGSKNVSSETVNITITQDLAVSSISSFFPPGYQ

B1: Antibody 2 (CD3×CD20-chimericFc bispecific antibody) (bispecific antibody)
heavy 1: EVQLVESGGGLVQPGRSLRLSCVASGFTFNDYAMHWVRQAPGKGLEWVSVISWNSDSIGYADSVKGRFTISRDNAKNSLYLQMHSLRAEDTALYYCAKDNHYGSGSYYYYQYGMDVWGQGTTVTVSSASTKGPSVFPLAPSSKSTSGGTAALGCLVKDYFPEPVTVSWNSGALTSGVHTFPAVLQSSGLYSLSSVVTVPSSSLGTQTYICNVNHKPSNTKVDKKVEPKSCDKTHTCPPCPAPPVAGPSVFLFPPKPKDTLMISRTPEVTCVVVDVSQEDPEVQFNWYVDGVEVHNAKTKPREEQFNSTYRVVSVLTVLHQDWLNGKEYKCKVSNKGLPSSIEKTISKAKGQPREPQVYTLPPSRDELTKNQVSLTCLVKGFYPSDIAVEWESNGQPENNYKTTPPVLDSDGSFFLYSKLTVDKSRWQQGNVFSCSVMHEALHNHYTQKSLSLSPGK
heavy 2: EVQLVESGGGLVQPGRSLRLSCAASGFTFDDYTMHWVRQAPGKGLEWVSGISWNSGSIGYADSVKGRFTISRDNAKKSLYLQMNSLRAEDTALYYCAKDNSGYGHYYYGMDVWGQGTTVTVASASTKGPSVFPLAPSSKSTSGGTAALGCLVKDYFPEPVTVSWNSGALTSGVHTFPAVLQSSGLYSLSSVVTVPSSSLGTQTYICNVNHKPSNTKVDKKVEPKSCDKTHTCPPCPAPPVAGPSVFLFPPKPKDTLMISRTPEVTCVVVDVSQEDPEVQFNWYVDGVEVHNAKTKPREEQFNSTYRVVSVLTVLHQDWLNGKEYKCKVSNKGLPSSIEKTISKAKGQPREPQVYTLPPSRDELTKNQVSLTCLVKGFYPSDIAVEWESNGQPENNYKTTPPVLDSDGSFFLYSKLTVDKSRWQQGNVFSCSVMHEALHNRFTQKSLSLSPGK
light: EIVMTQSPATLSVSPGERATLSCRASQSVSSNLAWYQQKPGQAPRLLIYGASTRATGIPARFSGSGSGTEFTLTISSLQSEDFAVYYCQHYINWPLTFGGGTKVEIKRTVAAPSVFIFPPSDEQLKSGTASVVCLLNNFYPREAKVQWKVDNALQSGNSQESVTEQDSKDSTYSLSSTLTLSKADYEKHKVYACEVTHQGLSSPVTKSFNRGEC
notes: also called Ab 2
With B1, the Kd turned out to be 42.4 µM in test [1]; 233 µM with His-tagged human FcγRIIB; 14.6 µM in test [2]; 11.7 µM in test [3]; 20.5 µM in test [4]; 23.5 µM in test [5].

B2: Antibody 1 (CD3×CD20-chimericFc bispecific antibody) (bispecific antibody)
heavy 1: EVQLVESGGGLVQPGRSLRLSCVASGFTFNDYAMHWVRQAPGKGLEWVSVISWNSDSIGYADSVKGRFTISRDNAKNSLYLQMHSLRAEDTALYYCAKDNHYGSGSYYYYQYGMDVWGQGTTVTVSSASTKGPSVFPLAPCSRSTSESTAALGCLVKDYFPEPVTVSWNSGALTSGVHTFPAVLQSSGLYSLSSVVTVPSSSLGTKTYTCNVDHKPSNTKVDKRVESKYGPPCPPCPAPPVAGPSVFLFPPKPKDTLMISRTPEVTCVVVDVSQEDPEVQFNWYVDGVEVHNAKTKPREEQFNSTYRVVSVLTVLHQDWLNGKEYKCKVSNKGLPSSIEKTISKAKGQPREPQVYTLPPSQEEMTKNQVSLTCLVKGFYPSDIAVEWESNGQPENNYKTTPPVLDSDGSFFLYSRLTVDKSRWQEGNVFSCSVMHEALHNHYTQKSLSLSLGK
heavy 2: EVQLVESGGGLVQPGRSLRLSCAASGFTFDDYTMHWVRQAPGKGLEWVSGISWNSGSIGYADSVKGRFTISRDNAKKSLYLQMNSLRAEDTALYYCAKDNSGYGHYYYGMDVWGQGTTVTVASASTKGPSVFPLAPCSRSTSESTAALGCLVKDYFPEPVTVSWNSGALTSGVHTFPAVLQSSGLYSLSSVVTVPSSSLGTKTYTCNVDHKPSNTKVDKRVESKYGPPCPPCPAPPVAGPSVFLFPPKPKDTLMISRTPEVTCVVVDVSQEDPEVQFNWYVDGVEVHNAKTKPREEQFNSTYRVVSVLTVLHQDWLNGKEYKCKVSNKGLPSSIEKTISKAKGQPREPQVYTLPPSQEEMTKNQVSLTCLVKGFYPSDIAVEWESNGQPENNYKTTPPVLDSDGSFFLYSRLTVDKSRWQEGNVFSCSVMHEALHNRFTQKSLSLSLGK
light: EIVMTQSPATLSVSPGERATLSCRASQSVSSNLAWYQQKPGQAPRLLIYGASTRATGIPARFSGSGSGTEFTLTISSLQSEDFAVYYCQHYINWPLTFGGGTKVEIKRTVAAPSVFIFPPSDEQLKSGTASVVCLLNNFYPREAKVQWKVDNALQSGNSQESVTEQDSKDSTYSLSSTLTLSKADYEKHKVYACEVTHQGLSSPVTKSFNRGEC
notes: also called Ab 1; Ab1
With B2, in test [6], the “% Survival B16F10.9/CD20 cells [M] (EC50, FACS, naive human PBMC effectors, 48 h)” value was found to be 1.95e-11 M. Further, the “Raji Cytotoxicity Activated Human T-cells [M] (EC50, calcein release)” value in test [7] was 2.5e-11 M. In addition, the “Raji Cytotoxicity Activated Monkey T-cells [M] (EC50, calcein release)” value in test [7] was 9.1e-12 M. Besides, the Kd came out at 66.3 µM in test [1]; 123 µM in the test with His-tagged human FcγRIIB; 13.9 µM in test [2]; 12 µM in test [3]; 19.3 µM in test [4]; 23.1 µM in test [5].
